Experimental data taken from PMC5104691, “Crystal Structure of the Neuropilin-1 MAM Domain: Completing the Neuropilin-1 Ectodomain Picture” (Structure(London, England:1993), 2016).

Biological target: the molecule itself
Assay: ITC; dissociation by dilution: 900 μM MAM domain in the syringe titrated into buffer (20 mM Tris pH 8.0, 100 mM NaCl), one 0.4 μL and 19 injections of 2 μL, at 15°C and 20°C; dimer or oligomer to monomers

B1: MAM domain of human neuropilin-1 (residues 628-813), wild-type glycosylated (domain or fragment, UniProt O14786 628-813, looked up)
chain: ATEKPTVIDSTIQSEFPTYGFNCEFGWGSHKTFCHWEHDNHVQLKWSVLTSKTGPIQDHTGDGNFIYSQADENQKGKVARLVSPVVYSQNSAHCMTFWYHMSGSHVGTLRVKLRYQKPEEYDQLVWMAIGHQGDHWKEGRVLLHKSLKLYQVIFEGEIGKGNLGGIAVDDISINNHISQEDCAKPA
modifications: glycosylated at serine and threonine residues upstream of the predicted MAM domain (O-linked glycosylation sites)
notes: Neuropilin-1 (NRP1), human, amino acid residues 628-813 (linker region and MAM/c domain); also called NRP1 MAM domain; NRP1 MAM; source: FreeStyle HEK293-F cells, transfected, secreted
  Kd: > 900 µM
